In the supplement of paper PMC10567573 one finds protein stability index data, which are given here for 53 sequences.

± gives the standard deviation.

The data set in a line: protein stability index of a GFP-peptide fusion (GPS, HEK-293T) (PSI 1-6); higher = more stable.
[1] abbreviates: treatment: DMSO, c terminus: a fixed tail appended.
Where [2] appears, read: treatment: MLN4924 1 uM, 8 h, c terminus: a fixed tail appended.
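Also: 24-mer peptide tiles fused after GFP, lentivirally expressed, FACS-sorted into six equal bins by GFP/DsRed ratio, decoded by Illumina sequencing, PSI is the read-weighted mean bin number.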

As for KCGNCQTKLHDIDGVPHLILIASR [KMT5A], the protein stability index by setting is: under setting [1], 2.35 ± 0.46; under setting [2], 2.51 ± 0.41.

For KDGEYCWRWTGFNFGFDLLVTYTN [GMCL1], the protein stability index under setting [1] was found to be 3.44 ± 0.41 and the protein stability index under setting [2] came out at 2.89 ± 0.46.

Sequence KDLFEEKIKKSPLTICYPEYAGSN [GNAI1] came in with a protein stability index under setting [1] of 3.96 ± 0.36 and a protein stability index under setting [2] of 4.09 ± 0.21.

Consider KDLNENLAATQGLAHMIAECKKLF [DLC1], for which the protein stability index by setting is: under setting [1], 2.39 ± 0.45; under setting [2], 2.3 ± 0.34.

KDMNFLKRYAGREEHWVGLKKEPG [CD69] yielded a protein stability index under setting [1] of 3.61 ± 0.16 and a protein stability index under setting [2] of 3.79 ± 0.21.

For KDWLEGTVRGATGIFPLSFVKILK [NCF4], the protein stability index reads like this: under setting [1], 2.49 ± 0.5; under setting [2], 2.38 ± 0.52.

Turning to KEAGVQKLILTSSASVIFEGVDIK [NSDHL], the protein stability index is 2.99 ± 0.3 under setting [1] and 2.84 ± 0.19 under setting [2].

Consider KEAVLAMEKKSKPKNSVWKRLKSP [RIT1], for which the protein stability index worked out at 4.23 ± 0.21 under setting [1] and 4.19 ± 0.27 under setting [2].

On to KEFTLLLSAANVCLDPIIYFFLCQ [P2RY14], for which the protein stability index runs as follows: under setting [1], 3.06 ± 0.56; under setting [2], 2.97 ± 0.17.

KEKDSPFKPKLYKGDRGLPLEGSA [RBBP5] came in with a protein stability index under setting [1] of 4.57 ± 0.34 and a protein stability index under setting [2] of 4.32 ± 0.23.

Under setting [2], KEQDVEKELRDGGEQDTWAGEGAE [NFE2L1] displayed a protein stability index of 5.83 ± 0.073.

Consider KESESEAKVDGETASDSESRAESA [CDS2], for which the protein stability index is, setting by setting: under setting [1], 5.6 ± 0.17; under setting [2], 5.34 ± 0.34.

As for KETAHDLDVKSPPEPRSEVVPARL [RIPK4], the protein stability index came out at 4.8 ± 1.2 under setting [1] and 4.88 ± 0.86 under setting [2].

As to KGNPEEEDVDTSQVLYEWEQGFSQ [CTNNB1], the protein stability index runs as follows: under setting [1], 5.11 ± 0.25; under setting [2], 5.25 ± 0.28.

As for KITDFQLHASTVKRYGLGAHRGRL [CPXM2], the protein stability index is, setting by setting: under setting [1], 3.133 ± 0.018; under setting [2], 3.22 ± 0.53.

Regarding KIVLCAVSHVFMLLFNVKSPTDIQ [RHOBTB3], the protein stability index under setting [1] was determined as 3.16 ± 0.17 and the protein stability index under setting [2] was determined as 3.09 ± 0.22.

Consider KKCVKKFVEYCDVNNDKSISVQEL [SMOC2], for which the protein stability index runs as follows: under setting [1], 3.57 ± 0.21; under setting [2], 3.68 ± 0.49.

As for KKIRQVIRKYNYVAMDTEFPGVVA [CNOT7], the protein stability index by setting is: under setting [1], 2.79 ± 0.35; under setting [2], 2.24 ± 0.28.

Take KKMSCQQFIANLDQLNDGQDFAKD [PSD2]: the protein stability index turned out to be 4.41 ± 0.22 under setting [1] and 4.4 ± 0.2 under setting [2].

As for KLCKKGLAATTSMAYAKLMLTVMT [FANCE], the protein stability index by setting is: under setting [1], 2.33 ± 0.52; under setting [2], 2.22 ± 0.43.

Turning to KLGPALKIYEYHVKPLQTKHLKNN [SAMD13], the protein stability index under setting [1] was found to be 2.46 ± 0.14 and the protein stability index under setting [2] was 2.54 ± 0.22.

Regarding KLQKEKEELERRFEDEVKRLGWQQ [MTUS2], the protein stability index came to 4.36 ± 0.35 under setting [1] and 4.6 ± 0.32 under setting [2].

As to KLSAKSLQTLRSFSHTLVSLSLFG [ZER1], the protein stability index under setting [1] turned out to be 3 ± 0.45 and the protein stability index under setting [2] amounted to 2.95 ± 0.43.

As to KLSPKKTWEGFIGGFFATVVFGLL [CDS2], the protein stability index turned out to be 2.33 ± 0.43 under setting [1] and 2.01 ± 0.28 under setting [2].

In the case of KPTEPSVPVQPLLPESLARSLLPS [FBF1], the protein stability index under setting [1] stood at 4.33 ± 0.11 and the protein stability index under setting [2] is 4.43 ± 0.26.

In the case of KQIKAGAYDFPSPEWDTVTPEAKD [CAMK2A], the protein stability index was 5.34 ± 0.26 under setting [1] and 5.27 ± 0.18 under setting [2].

KQQWEIMHKHNETSQKIAARAFAQ [RSPH3]: the protein stability index is, setting by setting: under setting [1], 3.41 ± 0.2; under setting [2], 3.38 ± 0.14.

In the case of KRANAAFLIGAYAVIYLKKTPEEA [CDC14A], the protein stability index reads like this: under setting [1], 2.38 ± 0.57; under setting [2], 2.21 ± 0.22.

For KRASAPTFDNDYSLSELLSQLDSG [RIPK4], the protein stability index worked out at 3.75 ± 0.37 under setting [1] and 3.56 ± 0.15 under setting [2].

With KRKVDTGGFLSESKDCKPPVYLLL [MYBL2], the protein stability index turned out to be 2.01 ± 0.51 under setting [1] and 2.61 ± 0.72 under setting [2].

Regarding KRLCGLKVEVDMEKIAAEIAQAEE [SMARCE1], the protein stability index is, setting by setting: under setting [1], 2.25 ± 0.12; under setting [2], 3.63 ± 0.37.

Take KRMSELCIDFNKNLNEDDTFLVFS: the protein stability index is, setting by setting: under setting [1], 2.08 ± 0.25; under setting [2], 2.58 ± 0.11.

With KRSVYIDARDEELEKDTMDNWDEK [ZC3H15], the protein stability index by setting is: under setting [1], 4.98 ± 0.31; under setting [2], 4.88 ± 0.24.

Consider KSKASFLLLASGLVITDFFGHLIN [PTGFR], for which the protein stability index runs as follows: under setting [1], 3.11 ± 0.27; under setting [2], 2.88 ± 0.57.

On to KSNGRGGSQAGGSGSAGQYGSDQQ [MYOZ1], for which the protein stability index under setting [1] was determined as 5.49 ± 0.23 and the protein stability index under setting [2] worked out at 5.4 ± 0.14.

For KSSTVGLVTLNDMKAKQEALVKER [FAM50A], the protein stability index under setting [1] amounted to 4.69 ± 0.31 and the protein stability index under setting [2] is 4.45 ± 0.39.

Take KTCSRVDHCAQQDHGCEQLCLNTE [MATN2]: the protein stability index runs as follows: under setting [1], 4.77 ± 0.19; under setting [2], 4.77 ± 0.21.

Take KVLNMWCCCFFKRRKRKTIQRHK [CSNK1G3]: the protein stability index by setting is: (treatment: DMSO, c terminus: native) 2.56 ± 0.16; (treatment: MLN4924 1 uM, 8 h, c terminus: native) 2.86 ± 0.22.

Regarding KVLTEPEVRYYLRQIVSGLKYLHE [PLK2], the protein stability index under setting [1] came out at 3.19 ± 0.29 and the protein stability index under setting [2] was determined as 2.42 ± 0.33.

Turning to KVVLSDAYAHPQQKVAVYRALQAA [TRADD], the protein stability index is, setting by setting: under setting [1], 2.9 ± 0.41; under setting [2], 3.24 ± 0.25.

As for KWLSCGFMLEIVTPTSLSSLSNAV [FBXO33], the protein stability index is, setting by setting: under setting [1], 3.04 ± 0.57; under setting [2], 3.57 ± 0.76.

On to KYKRRRFQKTKNLLTGETEADPEM [CLPTM1], for which the protein stability index reads like this: under setting [1], 4.83 ± 0.28; under setting [2], 4.57 ± 0.4.

Regarding LANACLPVRTTNKISKQFVAPADV [ZSWIM9], the protein stability index is 3.27 ± 0.2 under setting [1] and 3.5 ± 0.21 under setting [2].

As to LANGRALSAGSPPVPPGWNPNSSS [DLX1], the protein stability index by setting is: under setting [1], 3.93 ± 0.22; under setting [2], 4 ± 0.29.

On to LANNQCMATESVDHELGRCTDSVV [EHMT1], for which the protein stability index turned out to be 4.74 ± 0.093 under setting [1] and 4.71 ± 0.074 under setting [2].

In the case of LAQFPNTLLGNPKKRMRYFDPLRN [KCNA1], the protein stability index by setting is: under setting [1], 2.45 ± 0.12; under setting [2], 2.48 ± 0.12.

In the case of LAWASYDQTGKEVADRWYSEIKNY [GLIPR2], the protein stability index by setting is: under setting [1], 2.87 ± 0.5; under setting [2], 3.05 ± 0.23.

On to LAWRIVNDTYRTDLCLLYPPFMIA [CCNC], for which the protein stability index by setting is: under setting [1], 2.86 ± 0.49; under setting [2], 3.34 ± 0.71.

Consider LCKATSPADALQYLLQFARKPVEA [INTS4], for which the protein stability index was determined as 2.05 ± 0.28 under setting [1] and 2.12 ± 0.29 under setting [2].

Take LCKLFPFLQKSSVGITVLNLCALS [EDNRA]: the protein stability index was 2.47 ± 0.18 under setting [1] and 2.72 ± 0.57 under setting [2].

As for LDKSTKLVETAIQSLDEPGGATFL [TRIM63], the protein stability index under setting [1] is 4.13 ± 0.29 and the protein stability index under setting [2] was 4.17 ± 0.28.

As to LDREIRLQRLSHSGSRVRVGFRLC [SCNN1D], the protein stability index under setting [1] is 2.39 ± 0.17 and the protein stability index under setting [2] turned out to be 2.48 ± 0.16.

As to LDRERAAANEQLTRAILRERICSE [CHCHD3], the protein stability index runs as follows: under setting [1], 4.14 ± 0.23; under setting [2], 4.1 ± 0.42.
